± gives the standard error.

Results on 24 sequences are retold here after the supplement of paper PMC9428881.

The data set is described as follows: background-corrected fluorescence of 3'-dye-labeled ssDNA relative to brightest sequence (3'-GCGCG) (fraction); higher = brighter dye fluorescence (less quenching). In short, it runs like this:
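Each of 1024 permuted pentamers was synthesized as single-stranded DNA on glass slides by light-directed phosphoramidite chemistry, with a 3' Cy3 or Cy5 dye alongside. Arrays were scanned at 532 or 635 nm before and after overnight deprotection with ethylenediamine/ethanol. Values average 10 features per array across at least 3 syntheses. The fluorescence readout, with unlabeled-oligo background removed, is given relative to the brightest sequence.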

Consider “TTTTTTGCGCATGAGCATGATTTTTTTTTTTTTTTATCTC [CTCTA]”, for which the background-corrected fluorescence runs as follows: (dye: Cy3 (3' terminal)) 0.41 ± 0.024; (dye: Cy5 (3' terminal)) 0.291 ± 0.02.

As for “TTTTTTGCGCATGAGCATGCTTTTTTTTTTTTTTTATCTA”, the background-corrected fluorescence is, setting by setting: (dye: Cy3 (3' terminal)) 0.482 ± 0.029; (dye: Cy5 (3' terminal)) 0.368 ± 0.025.

As to “TTTTTTGCGCATGATCAGCATTTTTTTTTTTTTTTATCGT [TGCTA]”, the background-corrected fluorescence runs as follows: (dye: Cy3 (3' terminal)) 0.605 ± 0.011; (dye: Cy5 (3' terminal)) 0.449 ± 0.027.

On to “TTTTTTGCGCATGATCATCATTTTTTTTTTTTTTTATCGG [GGCTA]”, for which the background-corrected fluorescence is 0.609 ± 0.022 (dye: Cy3 (3' terminal)) and 0.504 ± 0.027 (dye: Cy5 (3' terminal)).

As for “TTTTTTGCGCATGATCATGATTTTTTTTTTTTTTTATCGC [CGCTA]”, the background-corrected fluorescence by setting is: (dye: Cy3 (3' terminal)) 0.534 ± 0.017; (dye: Cy5 (3' terminal)) 0.439 ± 0.02.

As for “TTTTTTGCGCATGATCATGCTTTTTTTTTTTTTTTATCGA [AGCTA]”, the background-corrected fluorescence runs as follows: (dye: Cy3 (3' terminal)) 0.635 ± 0.0066; (dye: Cy5 (3' terminal)) 0.517 ± 0.043.

For the sequence “TTTTTTGCGCATGATGAGCATTTTTTTTTTTTTTTATCCT [TCCTA]”, the background-corrected fluorescence runs as follows: (dye: Cy3 (3' terminal)) 0.447 ± 0.015; (dye: Cy5 (3' terminal)) 0.348 ± 0.02.

Regarding “TTTTTTGCGCATGATGATCATTTTTTTTTTTTTTTATCCG [GCCTA]”, the background-corrected fluorescence stood at 0.518 ± 0.023 (dye: Cy3 (3' terminal)) and 0.427 ± 0.035 (dye: Cy5 (3' terminal)).

On to “TTTTTTGCGCATGATGATGATTTTTTTTTTTTTTTATCCC [CCCTA]”, for which the background-corrected fluorescence came to 0.369 ± 0.026 (dye: Cy3 (3' terminal)) and 0.247 ± 0.016 (dye: Cy5 (3' terminal)).

As to “TTTTTTGCGCATGATGATGCTTTTTTTTTTTTTTTATCCA [ACCTA]”, the background-corrected fluorescence was 0.476 ± 0.012 (dye: Cy3 (3' terminal)) and 0.373 ± 0.038 (dye: Cy5 (3' terminal)).

As for “TTTTTTGCGCATGATGCGCATTTTTTTTTTTTTTTATCAT [TACTA]”, the background-corrected fluorescence by setting is: (dye: Cy3 (3' terminal)) 0.511 ± 0.02; (dye: Cy5 (3' terminal)) 0.408 ± 0.028.

As for “TTTTTTGCGCATGATGCTCATTTTTTTTTTTTTTTATCAG [GACTA]”, the background-corrected fluorescence came out at 0.56 ± 0.045 (dye: Cy3 (3' terminal)) and 0.411 ± 0.03 (dye: Cy5 (3' terminal)).

With “TTTTTTGCGCATGATGCTGATTTTTTTTTTTTTTTATCAC [CACTA]”, the background-corrected fluorescence runs as follows: (dye: Cy3 (3' terminal)) 0.399 ± 0.025; (dye: Cy5 (3' terminal)) 0.325 ± 0.032.

“TTTTTTGCGCATGATGCTGCTTTTTTTTTTTTTTTATCAA [AACTA]”: the background-corrected fluorescence was 0.522 ± 0.012 (dye: Cy3 (3' terminal)) and 0.411 ± 0.035 (dye: Cy5 (3' terminal)).

As to “TTTTTTGCGCATGCGCAGCATTTTTTTTTTTTTTTATATT”, the background-corrected fluorescence is 0.543 ± 0.019 (dye: Cy3 (3' terminal)) and 0.392 ± 0.024 (dye: Cy5 (3' terminal)).

The sequence “TTTTTTGCGCATGCGCATCATTTTTTTTTTTTTTTATATG [GTATA]” gave a background-corrected fluorescence (dye: Cy3 (3' terminal)) of 0.531 ± 0.013 and a background-corrected fluorescence (dye: Cy5 (3' terminal)) of 0.407 ± 0.024.

In the case of “TTTTTTGCGCATGCGCATGATTTTTTTTTTTTTTTATATC [CTATA]”, the background-corrected fluorescence (dye: Cy3 (3' terminal)) is 0.438 ± 0.025 and the background-corrected fluorescence (dye: Cy5 (3' terminal)) turned out to be 0.322 ± 0.017.

On to “TTTTTTGCGCATGCGCATGCTTTTTTTTTTTTTTTATATA”, for which the background-corrected fluorescence (dye: Cy3 (3' terminal)) is 0.537 ± 0.034 and the background-corrected fluorescence (dye: Cy5 (3' terminal)) amounted to 0.431 ± 0.042.

Consider “TTTTTTGCGCATGCTCAGCATTTTTTTTTTTTTTTATAGT [TGATA]”, for which the background-corrected fluorescence worked out at 0.587 ± 0.029 (dye: Cy3 (3' terminal)) and 0.482 ± 0.041 (dye: Cy5 (3' terminal)).

Take “TTTTTTGCGCATGCTCATCATTTTTTTTTTTTTTTATAGG [GGATA]”: the background-corrected fluorescence stood at 0.628 ± 0.019 (dye: Cy3 (3' terminal)) and 0.516 ± 0.03 (dye: Cy5 (3' terminal)).

As to “TTTTTTGCGCATGCTCATGATTTTTTTTTTTTTTTATAGC [CGATA]”, the background-corrected fluorescence reads like this: (dye: Cy3 (3' terminal)) 0.519 ± 0.027; (dye: Cy5 (3' terminal)) 0.407 ± 0.031.

In the case of “TTTTTTGCGCATGCTCATGCTTTTTTTTTTTTTTTATAGA [AGATA]”, the background-corrected fluorescence was found to be 0.602 ± 0.037 (dye: Cy3 (3' terminal)) and 0.489 ± 0.045 (dye: Cy5 (3' terminal)).

Take “TTTTTTGCGCATGCTGAGCATTTTTTTTTTTTTTTATACT [TCATA]”: the background-corrected fluorescence was found to be 0.504 ± 0.024 (dye: Cy3 (3' terminal)) and 0.378 ± 0.019 (dye: Cy5 (3' terminal)).

“TTTTTTGCGCATGCTGATCATTTTTTTTTTTTTTTATACG [GCATA]”: the background-corrected fluorescence amounted to 0.574 ± 0.022 (dye: Cy3 (3' terminal)) and 0.43 ± 0.029 (dye: Cy5 (3' terminal)).
